Measurements reported in patent publication US20090074747A1 (IRM, published 2009).
Positions count from the first letter of the chain named. Blank lines part the entries; values can stand above or below the binder they belong to.

Biological target: T1, human TSLPR on cells (Ba/F3 cells stably overexpressing hTSLPR/hIL7Rα/Stat5-Luc; primary human monocytes) (human, UniProt Q9HC73 23-371)
T1 sequence (looked up): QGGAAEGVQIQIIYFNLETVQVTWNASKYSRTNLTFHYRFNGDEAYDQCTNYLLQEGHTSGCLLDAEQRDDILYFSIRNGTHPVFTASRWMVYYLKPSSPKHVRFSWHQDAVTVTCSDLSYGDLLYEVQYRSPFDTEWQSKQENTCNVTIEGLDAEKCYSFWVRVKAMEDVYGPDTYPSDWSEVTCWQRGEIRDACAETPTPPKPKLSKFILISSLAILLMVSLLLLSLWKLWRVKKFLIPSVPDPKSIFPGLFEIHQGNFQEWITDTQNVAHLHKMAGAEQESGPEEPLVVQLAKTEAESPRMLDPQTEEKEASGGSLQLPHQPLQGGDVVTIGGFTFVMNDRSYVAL
Assay: cell-based or functional assay

IC50, luciferase reporter gene assay (Stat5-Luc): 2.7 nM
B1: NV163-1-Fab' (Fab, V domains shown)
VH: QVQLVQSGSELKKPGASVKVSCKASGYTFTSYGISWVRQAPGQGLEWMGWVNTNTGNPRYAQGFTGRFVFSLDTSVSTAYLQISSLKAEDTAVYYCAREGFIRTVVGAAGRFVYWGQGTLVTVSS
VL: DIQMTQSPSSLSASVGDRVTITCRASQDIHTRLAWYQQKPGKAPKLLIYWASTRGSGVPSRFSGSGSGTDFTLTISSLQPEDFATYYCQQYSAYPTFGQGTKLEIK

IC50, inhibition of TARC secretion from primary human monocytes: 10 pM | IC50, luciferase reporter gene assay (Stat5-Luc), natural human TSLP: 50 pM | IC50, luciferase reporter gene assay (Stat5-Luc), recombinant human TSLP: 126 pM
B2: NV115-3B-IgG1 (antibody, V domains shown)
VH: B1 VH with S9A, L11V, S31T, V37L, R103T
VL: B1 VL with K42Q, A43P, G55A, S60D, S65T, P80A, F83V, T85V, A93T

IC50, inhibition of TARC secretion from primary human monocytes: 11 pM | IC50, luciferase reporter gene assay (Stat5-Luc), natural human TSLP: 40 pM | IC50, luciferase reporter gene assay (Stat5-Luc), recombinant human TSLP: 221 pM
B3: NV164-1-IgG1 (antibody, V domains shown)
VH: B1 VH with I34M
VL: DIQMTQSPSSLSASVGDRVTITCRASQDIHTRLAWYQQKPGKAPKLLIYWASTLQSGVPSRFSGSGSGTDFTLTISSLQPEDFATYYCQQYSAYPTFGQGTKLEIKG

IC50, luciferase reporter gene assay (Stat5-Luc): 4 nM
B4: NV164-1-Fab' (Fab, V domains shown)
VH: B1 VH with I34M
VL: B1 VL with R54L, G55Q
